B1: ANB019 (antibody, V domains shown)
VH: QVQLVQSGAEVKKPGASVKVSCKASGYTFTNYWMNWVRQAPRQGLEWMGMFHPTGDVTRLNQKFKDRVTMTRDTSTSTVYMELSSLRSEDTAVYYCARTTSMIIGGFAYWGQGTLVTVSS
VL: DIVMTQTPLSLSVTPGQPASISCRSSKSLLHRNAITYFYWYLHKPGQPPQLLIYQMSNLASGVPDRFSGSGSGTDFTLKISRVEAEDVGVYYCAQNLELPLTFGGGTKVEIK
notes: also called benchmark antibody
B2: REGN14 (antibody, V domains shown)
VH: EVQLVESGGDLVQPGRSLRLSCAASGFTFDDYAMHWVRQAPGKGLEWVSVISWNSDVIAYSDSVKGRFTISRDNAKNSLYLQMNSLRTEDTALYYCTKGHKWSFFDYWGQGTLVTVSS
VL: EIVLTQSPATLSLSPGERATLSCRASQSISSYLAWYQQKPGQAPRLLIFNVANRATDIPARFSGSGSGTDFTLTISSLEPEDFAVYYCQQRSNWPLTFGGGTKVEIK
notes: as for B1

Columns and labels:
[1] = target: T1, Recombinant hIL1R1 protein (human, UniProt P14778 18-332, limits assumed); experiment: ELISA on coated recombinant hIL1R1 protein, detection with HRP anti-hIgG
T1 sequence (looked up): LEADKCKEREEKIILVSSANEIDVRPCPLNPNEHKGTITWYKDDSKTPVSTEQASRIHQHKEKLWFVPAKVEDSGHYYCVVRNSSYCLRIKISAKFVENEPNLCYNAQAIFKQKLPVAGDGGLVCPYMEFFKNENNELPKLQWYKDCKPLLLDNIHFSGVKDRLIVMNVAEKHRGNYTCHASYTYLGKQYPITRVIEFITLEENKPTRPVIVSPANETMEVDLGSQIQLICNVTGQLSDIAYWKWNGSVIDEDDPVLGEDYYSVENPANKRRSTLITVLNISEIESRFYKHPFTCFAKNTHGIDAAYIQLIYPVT

[2] = target: T2, Recombinant hIL-36R protein (Acrobio, Cat #IL2-H52H6) (human, UniProt Q9HB29 20-335); experiment: SPR (Biacore T200, 25 C), antibody captured by Fc, hIL-36R analyte
T2 construct: Bought soluble protein; also called recombinant human IL-36R protein
T2 sequence: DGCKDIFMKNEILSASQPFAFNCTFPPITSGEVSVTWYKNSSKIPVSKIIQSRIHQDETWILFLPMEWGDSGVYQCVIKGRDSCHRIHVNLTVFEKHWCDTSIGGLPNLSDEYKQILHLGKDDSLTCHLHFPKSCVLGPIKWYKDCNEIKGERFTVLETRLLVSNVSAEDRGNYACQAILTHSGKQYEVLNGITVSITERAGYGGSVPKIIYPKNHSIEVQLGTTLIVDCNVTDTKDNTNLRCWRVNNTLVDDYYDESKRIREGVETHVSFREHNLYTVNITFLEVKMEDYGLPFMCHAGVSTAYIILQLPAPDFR

membrane hIL-36R [3] = target: T3, membrane hIL-36R (human, UniProt Q9HB29 20-575); experiment: cell-based or functional assay
T3 sequence: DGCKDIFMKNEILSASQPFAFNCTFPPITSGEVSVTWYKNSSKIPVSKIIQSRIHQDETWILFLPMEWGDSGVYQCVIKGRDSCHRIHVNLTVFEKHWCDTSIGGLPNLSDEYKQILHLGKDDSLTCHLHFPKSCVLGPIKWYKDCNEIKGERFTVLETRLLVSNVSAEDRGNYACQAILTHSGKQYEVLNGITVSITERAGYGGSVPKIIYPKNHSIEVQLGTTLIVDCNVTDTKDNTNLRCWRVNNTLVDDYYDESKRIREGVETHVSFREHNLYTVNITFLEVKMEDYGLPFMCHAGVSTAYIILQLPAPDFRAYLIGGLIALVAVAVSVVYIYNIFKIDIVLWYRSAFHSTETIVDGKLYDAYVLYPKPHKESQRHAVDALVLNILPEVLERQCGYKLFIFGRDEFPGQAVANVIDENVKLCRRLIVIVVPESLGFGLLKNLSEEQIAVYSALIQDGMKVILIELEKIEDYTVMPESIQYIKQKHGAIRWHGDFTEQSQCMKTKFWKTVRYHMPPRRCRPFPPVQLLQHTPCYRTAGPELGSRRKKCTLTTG

recombinant hIL-36R-his = target: T4, recombinant hIL-36R-his (human, UniProt Q9HB29 20-337); experiment: ELISA on coated recombinant hIL36R protein (1 µg/ml), detection with HRP anti-hIgG; unit taken from the x axis Ab(µg/mL)
T4 construct: Residues 1-337 (extracellular domain) are stated for the IL-36R-his used as immunogen; The range includes the signal peptide; no cleavage site is stated; also called recombinant hIL36R protein; recombinant human IL-36R-his protein; not shown: His tag
T4 sequence: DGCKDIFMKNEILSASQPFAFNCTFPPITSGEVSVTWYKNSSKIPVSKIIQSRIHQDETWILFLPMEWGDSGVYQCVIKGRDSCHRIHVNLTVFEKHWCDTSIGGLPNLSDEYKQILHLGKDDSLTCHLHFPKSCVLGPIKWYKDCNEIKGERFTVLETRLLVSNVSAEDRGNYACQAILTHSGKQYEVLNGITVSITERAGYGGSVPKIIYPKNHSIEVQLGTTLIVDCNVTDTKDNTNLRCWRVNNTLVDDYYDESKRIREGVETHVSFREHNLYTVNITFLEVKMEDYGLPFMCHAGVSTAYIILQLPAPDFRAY

membrane hIL-36R [4] = target: T3, membrane hIL-36R; experiment: flow cytometry on HEK293 cells transfected with pcDNA3.1-hIL36R, FITC anti-hIgG, MFI (median); unit taken from the x axis
membrane hIL-36R [5] = target: T3, membrane hIL-36R; experiment: cell-based or functional assay; remark: listed apart in the source
membrane hIL-36R [6] = target: T3, membrane hIL-36R; experiment: cell-based or functional assay; remark: listed apart in the source
membrane hIL-36R [7] = target: T3, membrane hIL-36R; experiment: cell-based or functional assay; remark: listed apart in the source
membrane hIL-36R [8] = target: T3, membrane hIL-36R; experiment: cell-based or functional assay; remark: listed apart in the source
membrane hIL-36R [9] = target: T3, membrane hIL-36R; experiment: cell-based or functional assay; remark: listed apart in the source
membrane hIL-36R [10] = target: T3, membrane hIL-36R; experiment: cell-based or functional assay; remark: listed apart in the source
membrane hIL-36R [11] = target: T3, membrane hIL-36R; experiment: cell-based or functional assay; remark: listed apart in the source

binding result [1]	Kd [2] [nM]	koff [2] [s⁻¹]	kon [2] [M⁻¹ s⁻¹]	IC50, inhibition of IL-36α induced IL-8 release in A431 cells (IL-8 ELISA, OD450) [panel IL-36α] (membrane hIL-36R [3]) [µg/mL]	IC50, inhibition of IL-36β induced IL-8 release in A431 cells (IL-8 ELISA, OD450) [panel IL-36β] (membrane hIL-36R [3]) [µg/mL]	IC50, inhibition of IL-36γ induced IL-8 release in A431 cells (IL-8 ELISA, OD450) [panel IL-36γ] (membrane hIL-36R [3]) [µg/mL]	EC50 (recombinant hIL-36R-his) [µg/mL]	EC50 (membrane hIL-36R [4]) [µg/mL]	IC50, inhibition of IL-36β induced IL-6 release in primary human epithelial keratinocytes (HEK cells) [panel IL-6] (membrane hIL-36R [5]) [µg/mL]	IC50, inhibition of IL-36β induced IL-8 release in primary human epithelial keratinocytes (HEK cells) [panel IL-8] (membrane hIL-36R [5]) [µg/mL]	IC50, inhibition of IL-36β induced TNF-α release in primary human epithelial keratinocytes (HEK cells) [panel TNF-α] (membrane hIL-36R [5]) [µg/mL]	IC50, inhibition of IL-36α induced IL-8 release in primary human dermal fibroblast (HDF) cells (IL-8 ELISA, OD450) (membrane hIL-36R [7]) [µg/mL]	IC50, inhibition of IL-36α induced IL-6 release in primary human epithelial keratinocytes (HEK cells) [panel IL-6] (membrane hIL-36R [8]) [µg/mL]	IC50, inhibition of IL-36α induced IL-8 release in primary human epithelial keratinocytes (HEK cells) [panel IL-8] (membrane hIL-36R [8]) [µg/mL]	IC50, inhibition of IL-36α induced TNF-α release in primary human epithelial keratinocytes (HEK cells) [panel TNF-α] (membrane hIL-36R [8]) [µg/mL]	IC50, inhibition of IL-36γ induced IL-6 release in primary human epithelial keratinocytes (HEK cells) [panel IL-6] (membrane hIL-36R [9]) [µg/mL]	IC50, inhibition of IL-36γ induced IL-8 release in primary human epithelial keratinocytes (HEK cells) [panel IL-8] (membrane hIL-36R [9]) [µg/mL]	IC50, inhibition of IL-36γ induced TNF-α release in primary human epithelial keratinocytes (HEK cells) [panel TNF-α] (membrane hIL-36R [9]) [µg/mL]	further results	Binder
no binding (tested: 1 µg/mL)	13.2	0.000444	33500	1.58	0.496	0.0474	0.0228	0.119	0.094	0.35	0.0577	0.106	1.35	1.15	0.266	0.159	0.187	0.0726	IC50, IL-36R reporter assay: inhibition of ligand induced luminescence in Jurkat-IL36R-IL1Racp-NFkB-luc cells (membrane hIL-36R [6]): 0.0324 µg/mL	B1
no binding (tested: 1 µg/mL)	3.74	0.000283	75600	2.29	1.02	0.0627	0.0106	0.0582	0.0225	0.253	0.0298	0.0877	1.73	1.47	0.353	0.148	0.114	0.0347	IC50, IL-36R reporter assay: inhibition of IL-36α induced luminescence in Jurkat-IL36R-IL1Racp-NFkB-luc cells (printed REGN-14) (membrane hIL-36R [10]): 0.0839 nM; IC50, IL-36R reporter assay: inhibition of ligand induced luminescence in Jurkat-IL36R-IL1Racp-NFkB-luc cells (printed REGN-14) (membrane hIL-36R [11]): 0.169 µg/mL	B2
